Data as given in publication PMC4499140 (Nucleic Acids Research, 2015).

Assays:
[1] = target: Mycobacterium tuberculosis RNA polymerase core (Mycobacterium tuberculosis, UniProt P9WGZ1;P9WGY9;P9WGY7); assay: fluorescence polarisation
[2] = target: Rv1222 G133C (Fe-BABE);E. coli RNAP-σ70 holoenzyme (Mycobacterium tuberculosis …, UniProt L0T905;P0A7Z4;P0A8V2;P0A8T7;P0A800;P00579 1-154;1-329;1-1342;1-1407;2-91;1-613, C70A;C73A;C109G;G133C|); assay: Fe-BABE footprinting

B1: Rv1222ΔC, TMR labelled (domain or fragment)
chain: MADPGSVGHVFRRAFSWLPAQFASQSDAPVGAPRQFRSTEHLSIEAIAAFVDGELRMNAHLRAAHHLSLCAQCAAEVDDQSRARAALRDSHPIRIPSTLLGLLSEIPRCPPEGPSKGSSGGSSQGPPDGAAAGFGDRFADGDGG
modifications: TMR label
B1 was tested, and the Kd [1] was 72 ± 26 nM.

B2: lacCONS15 promoter DNA (dsDNA)
DNA 1: CACCCCAGGCTTGACACTTTATGCTTCGGCTCGTATAATGTGTGGAATTGTGAGGAGAGGCGGATAACAATTTCACACAGG
DNA 2: CCTGTGTGAAATTGTTATCCGCCTCTCCTCACAATTCCACACATTATACGAGCCGAAGCATAAAGTGTCAAGCCTGGGGTG
B2: binds [2].
